In patent US20220339270A1 (published 2022):

Columns and labels:
[1] = molecular target: T1, extracellular tau in the form of paired helical filaments (ePHF) (UniProt P10636-8 1-441, limits assumed); experiment: method not stated
T1 construct: Immobilised on 96-well plates for the ePHF tau ELISA; also called ePHF tau; PHF tau

[2] = molecular target: T2, recombinant tau mutant protein tau441-T212A+S214A (phospho-Tau variant) (human, UniProt P10636 1-758, phosphorylated (phospho-Tau variant; kinase DYRK1A by the context)); experiment: PT3 ELISA with phospho-Tau variants
T2 construct: not shown: his tag (detected with anti-his antibody)

[3] = molecular target: T3, recombinant tau mutant protein tau441-T217A+T231A (phospho-Tau variant) (human, UniProt P10636 1-758, phosphorylated (phospho-Tau variant; kinase DYRK1A by the context)); experiment: PT3 ELISA with phospho-Tau variants
T3 construct: not shown: his tag (detected with anti-his antibody)

[4] = molecular target: T4, recombinant tau mutant protein tau441-T212A+T217A (phospho-Tau variant) (human, UniProt P10636 1-758, phosphorylated (phospho-Tau variant; kinase DYRK1A by the context)); experiment: PT3 ELISA with phospho-Tau variants
T4 construct: not shown: his tag (detected with anti-his antibody)

[5] = molecular target: T5, recombinant tau mutant protein tau441-T212A+T231A (phospho-Tau variant) (human, UniProt P10636 1-758, phosphorylated (phospho-Tau variant; kinase DYRK1A by the context)); experiment: PT3 ELISA with phospho-Tau variants
T5 construct: not shown: his tag (detected with anti-his antibody)

[6] = molecular target: T6, recombinant tau mutant protein tau441-T212A+T217A+T231A (phospho-Tau variant) (human, UniProt P10636 1-758, phosphorylated (phospho-Tau variant; kinase DYRK1A by the context)); experiment: PT3 ELISA with phospho-Tau variants
T6 construct: not shown: his tag (detected with anti-his antibody)
T6 sequence (P10636 other isoform, or with tags, fused parts or gaps T212A T217A T231A T212A T217A T231A): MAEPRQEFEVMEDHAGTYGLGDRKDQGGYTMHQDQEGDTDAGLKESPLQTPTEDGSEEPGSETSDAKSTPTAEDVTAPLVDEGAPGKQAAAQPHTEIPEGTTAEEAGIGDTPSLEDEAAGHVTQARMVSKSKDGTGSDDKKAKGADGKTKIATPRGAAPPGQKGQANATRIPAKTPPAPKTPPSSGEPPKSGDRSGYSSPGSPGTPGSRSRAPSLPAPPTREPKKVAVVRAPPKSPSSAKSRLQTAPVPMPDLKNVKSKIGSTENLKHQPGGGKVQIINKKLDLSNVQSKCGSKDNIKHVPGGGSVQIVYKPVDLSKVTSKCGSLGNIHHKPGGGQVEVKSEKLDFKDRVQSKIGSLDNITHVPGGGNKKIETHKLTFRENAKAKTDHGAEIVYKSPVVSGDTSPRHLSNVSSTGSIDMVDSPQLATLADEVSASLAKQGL

T2 sequence (P10636 other isoform, or with tags, fused parts or gaps T212A S214A T212A S214A): as the sequence (P10636 other isoform, or with tags, fused parts or gaps T212A T217A T231A T212A T217A T231A) above, with S214A, A217T, A231T counted along it
T4 sequence (P10636 other isoform, or with tags, fused parts or gaps T212A T217A T212A T217A): as the sequence (P10636 other isoform, or with tags, fused parts or gaps T212A T217A T231A T212A T217A T231A) above, with A231T counted along it
T3 sequence (P10636 other isoform, or with tags, fused parts or gaps T217A T231A T217A T231A): as the sequence (P10636 other isoform, or with tags, fused parts or gaps T212A T217A T231A T212A T217A T231A) above, with A212T counted along it
T5 sequence (P10636 other isoform, or with tags, fused parts or gaps T212A T231A T212A T231A): as the sequence (P10636 other isoform, or with tags, fused parts or gaps T212A T217A T231A T212A T217A T231A) above, with A217T counted along it
T1 sequence (P10636 other isoform, or with tags, fused parts or gaps limits assumed): as the sequence (P10636 other isoform, or with tags, fused parts or gaps T212A T217A T231A T212A T217A T231A) above, with A212T, A217T, A231T counted along it

B1: anti-tau antibody PT3 (antibody, V domains shown)
VH: EVKLVESGGDLVKPGGSLKLSCAASGFTFSSYAMSWVRQNPEKRLEWVASISKGGNTYYPNSVKGRFTISRDNARNILYLQMSSLRSEDTALYYCARGWGDYGWFAYWGQVTLVTVSA
VL: DIKMTQSPSSMYASLGERVTITCKASQDINRYLNWFQQKPGKSPKTLIYRANRLLDGVPSRFSGSGSGQDYSLTISSLDYEDMGIYYCLQYDEFPLTFGDGTKLELK
notes: also called purified PT3 antibody
no binding (tested: 210 ng/mL): binding result [2] | binding result [3] | binding result [4] | binding result [5] | binding result [6]
0.018 nM: Kd [1]
